Laboratory results: patent US20250114463A1, “LIVER-TARGETED DRUG AND USE THEREOF” (HANMI PHARM. CO., LTD., priority 2021, published 2025)
Where a chain is given by its changes, count along the chain named. Bridges are numbered along the chain shown (N, C = ends). Where no end group is shown, it is not given here. [ ]: non-standard residue; d: D form. Aib = CC(C)(N)C(=O)O

T1: human GIP receptor (human, UniProt P48546 22-466)
T1 sequence (looked up): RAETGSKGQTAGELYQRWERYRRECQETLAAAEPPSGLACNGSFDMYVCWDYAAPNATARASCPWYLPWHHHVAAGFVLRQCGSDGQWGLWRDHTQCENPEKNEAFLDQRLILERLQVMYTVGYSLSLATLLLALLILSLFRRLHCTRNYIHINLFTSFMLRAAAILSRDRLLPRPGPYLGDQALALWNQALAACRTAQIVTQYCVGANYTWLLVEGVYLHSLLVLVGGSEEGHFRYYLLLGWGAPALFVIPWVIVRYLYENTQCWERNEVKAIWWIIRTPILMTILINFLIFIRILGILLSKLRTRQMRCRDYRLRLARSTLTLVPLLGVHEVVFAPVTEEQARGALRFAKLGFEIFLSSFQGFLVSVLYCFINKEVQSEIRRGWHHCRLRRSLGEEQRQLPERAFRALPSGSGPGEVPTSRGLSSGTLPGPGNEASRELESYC

B1: triple agonist of SEQ ID NO: 27 (peptide)
peptide: HXQGTFTSDYSKYLDERACQDFVQWLLDQGGPSSGAPPPS
HELM: PEPTIDE1{H.[Aib].Q.G.T.F.T.S.D.Y.S.K.Y.L.D.E.R.A.C.Q.D.F.V.Q.W.L.L.D.Q.G.G.P.S.S.G.A.P.P.P.S.[am]}$$$$V2.0; N-terminus assumed
SMILES: CC(C)C[C@H](NC(=O)[C@H](CC(C)C)NC(=O)[C@H](Cc1c[nH]c2ccccc12)NC(=O)[C@H](CCC(N)=O)NC(=O)[C@@H](NC(=O)[C@H](Cc1ccccc1)NC(=O)[C@H](CC(=O)O)NC(=O)[C@H](CCC(N)=O)NC(=O)[C@H](CS)NC(=O)[C@H](C)NC(=O)[C@H](CCCNC(=N)N)NC(=O)[C@H](CCC(=O)O)NC(=O)[C@H](CC(=O)O)NC(=O)[C@H](CC(C)C)NC(=O)[C@H](Cc1ccc(O)cc1)NC(=O)[C@H](CCCCN)NC(=O)[C@H](CO)NC(=O)[C@H](Cc1ccc(O)cc1)NC(=O)[C@H](CC(=O)O)NC(=O)[C@H](CO)NC(=O)[C@@H](NC(=O)[C@H](Cc1ccccc1)NC(=O)[C@@H](NC(=O)CNC(=O)[C@H](CCC(N)=O)NC(=O)C(C)(C)NC(=O)[C@@H](N)Cc1c[nH]cn1)[C@@H](C)O)[C@@H](C)O)C(C)C)C(=O)N[C@@H](CC(=O)O)C(=O)N[C@@H](CCC(N)=O)C(=O)NCC(=O)NCC(=O)N1CCC[C@H]1C(=O)N[C@@H](CO)C(=O)N[C@@H](CO)C(=O)NCC(=O)N[C@@H](C)C(=O)N1CCC[C@H]1C(=O)N1CCC[C@H]1C(=O)N1CCC[C@H]1C(=O)N[C@@H](CO)C(N)=O
B2: triple agonist of SEQ ID NO: 25 (peptide)
peptide: HXQGTFTSDCSKYLDERAAQDFVQWLLDGGPSSGAPPPS
HELM: PEPTIDE1{H.[Aib].Q.G.T.F.T.S.D.C.S.K.Y.L.D.E.R.A.A.Q.D.F.V.Q.W.L.L.D.G.G.P.S.S.G.A.P.P.P.S.[am]}$$$$V2.0; N-terminus assumed
SMILES: CC(C)C[C@H](NC(=O)[C@H](CC(C)C)NC(=O)[C@H](Cc1c[nH]c2ccccc12)NC(=O)[C@H](CCC(N)=O)NC(=O)[C@@H](NC(=O)[C@H](Cc1ccccc1)NC(=O)[C@H](CC(=O)O)NC(=O)[C@H](CCC(N)=O)NC(=O)[C@H](C)NC(=O)[C@H](C)NC(=O)[C@H](CCCNC(=N)N)NC(=O)[C@H](CCC(=O)O)NC(=O)[C@H](CC(=O)O)NC(=O)[C@H](CC(C)C)NC(=O)[C@H](Cc1ccc(O)cc1)NC(=O)[C@H](CCCCN)NC(=O)[C@H](CO)NC(=O)[C@H](CS)NC(=O)[C@H](CC(=O)O)NC(=O)[C@H](CO)NC(=O)[C@@H](NC(=O)[C@H](Cc1ccccc1)NC(=O)[C@@H](NC(=O)CNC(=O)[C@H](CCC(N)=O)NC(=O)C(C)(C)NC(=O)[C@@H](N)Cc1c[nH]cn1)[C@@H](C)O)[C@@H](C)O)C(C)C)C(=O)N[C@@H](CC(=O)O)C(=O)NCC(=O)NCC(=O)N1CCC[C@H]1C(=O)N[C@@H](CO)C(=O)N[C@@H](CO)C(=O)NCC(=O)N[C@@H](C)C(=O)N1CCC[C@H]1C(=O)N1CCC[C@H]1C(=O)N1CCC[C@H]1C(=O)N[C@@H](CO)C(N)=O
B3: triple agonist of SEQ ID NO: 26 (peptide)
peptide: B2 peptide with E16S
HELM: PEPTIDE1{H.[Aib].Q.G.T.F.T.S.D.C.S.K.Y.L.D.S.R.A.A.Q.D.F.V.Q.W.L.L.D.G.G.P.S.S.G.A.P.P.P.S.[am]}$$$$V2.0; N-terminus assumed
SMILES: CC(C)C[C@H](NC(=O)[C@H](CC(C)C)NC(=O)[C@H](Cc1c[nH]c2ccccc12)NC(=O)[C@H](CCC(N)=O)NC(=O)[C@@H](NC(=O)[C@H](Cc1ccccc1)NC(=O)[C@H](CC(=O)O)NC(=O)[C@H](CCC(N)=O)NC(=O)[C@H](C)NC(=O)[C@H](C)NC(=O)[C@H](CCCNC(=N)N)NC(=O)[C@H](CO)NC(=O)[C@H](CC(=O)O)NC(=O)[C@H](CC(C)C)NC(=O)[C@H](Cc1ccc(O)cc1)NC(=O)[C@H](CCCCN)NC(=O)[C@H](CO)NC(=O)[C@H](CS)NC(=O)[C@H](CC(=O)O)NC(=O)[C@H](CO)NC(=O)[C@@H](NC(=O)[C@H](Cc1ccccc1)NC(=O)[C@@H](NC(=O)CNC(=O)[C@H](CCC(N)=O)NC(=O)C(C)(C)NC(=O)[C@@H](N)Cc1c[nH]cn1)[C@@H](C)O)[C@@H](C)O)C(C)C)C(=O)N[C@@H](CC(=O)O)C(=O)NCC(=O)NCC(=O)N1CCC[C@H]1C(=O)N[C@@H](CO)C(=O)N[C@@H](CO)C(=O)NCC(=O)N[C@@H](C)C(=O)N1CCC[C@H]1C(=O)N1CCC[C@H]1C(=O)N1CCC[C@H]1C(=O)N[C@@H](CO)C(N)=O

What follows are binders tested against T1, human GIP receptor (assay: cell-based or functional assay).

Compared with H[Aib]QGTFTSDYSKYLDEKACKEFVQWLLAQ (bridge 16-20; not fully specified (C-terminus)) [triple agonist of SEQ ID NO: 31], H[Aib]QGTFTSDYSKYLDEKRAQEFVCWLLAQKGKKNDWKHNIT-NH2 [triple agonist of SEQ ID NO: 28] is lower in “in vitro Activity Compared to Native Peptide (%), vs GIP” value: 2.4% for the first, < 0.1% for the second.

Compared with H[Aib]QGTFTSDYSKYLDEKACKDFVQWLLDGGPSSGAPPPS (bridge 16-20; not fully specified (C-terminus)) [triple agonist of SEQ ID NO: 32], H[Aib]QGTFTSDYSKYLDEKAAKEFVQWLLNTC (bridge 16-20; not fully specified (C-terminus)) [triple agonist of SEQ ID NO: 29] is lower in “in vitro Activity Compared to Native Peptide (%), vs GIP” value: 8.8% for the first, < 0.1% for the second.

First: Y[Aib]QGTFTSDYSKYLDECRAKEFVQWLKNGGPSSGAPPPS (bridge 16-20; not fully specified (C-terminus)) [triple agonist of SEQ ID NO: 24]
Second: H[Aib]QGTFTSDYSKYLDEKAQKEFVQWLLDTC (bridge 16-20; not fully specified (C-terminus)) [triple agonist of SEQ ID NO: 30]
The “in vitro Activity Compared to Native Peptide (%), vs GIP” value of the first is lower: < 0.1% for the first, 0.8% for the second.

Going from B1 to Y[Aib]QGTFTSDYSKYLDECRAKEFVQWLLAQKGKKNDWKHNIT (bridge 16-20; not fully specified (C-terminus)) [triple agonist of SEQ ID NO: 23], the “in vitro Activity Compared to Native Peptide (%), vs GIP” value falls from 0.9% to < 0.1%.

Compared with H[Aib]QGTFTSDVSSYLLGQAAKQFIAWLVKGGGPSSGAPPPSC-NH2 [triple agonist of SEQ ID NO: 3], H[Aib]QGTFTSDYSIAMDEIHQKDFVNWLLAQKC (bridge 16-20; not fully specified (C-terminus)) [triple agonist of SEQ ID NO: 33] is higher in “in vitro Activity Compared to Native Peptide (%), vs GIP” value: < 0.1% for the first, 10.4% for the second.

B2 and B3 cannot be ordered by “in vitro Activity Compared to Native Peptide (%), vs GIP” value: < 0.1% for the first, < 0.1% for the second.

Each binder was assayed against human GLP-1 receptor (human, UniProt P43220 24-463) (assay: cell-based or functional assay).

First: H[Aib]QGTFTSDYSKYLDEKACKEFVQWLLAQ (bridge 16-20; not fully specified (C-terminus)) [triple agonist of SEQ ID NO: 31]
Second: H[Aib]QGTFTSDYSKYLDEKRAQEFVCWLLAQKGKKNDWKHNIT-NH2 [triple agonist of SEQ ID NO: 28]
The “in vitro Activity Compared to Native Peptide (%), vs GLP-1” value of the first is higher: 135% for the first, 17.2% for the second.

Compared with H[Aib]QGTFTSDYSKYLDEKACKDFVQWLLDGGPSSGAPPPS (bridge 16-20; not fully specified (C-terminus)) [triple agonist of SEQ ID NO: 32], H[Aib]QGTFTSDYSKYLDEKAAKEFVQWLLNTC (bridge 16-20; not fully specified (C-terminus)) [triple agonist of SEQ ID NO: 29] is lower in “in vitro Activity Compared to Native Peptide (%), vs GLP-1” value: 151% for the first, 38.5% for the second.

Compared with Y[Aib]QGTFTSDYSKYLDECRAKEFVQWLKNGGPSSGAPPPS (bridge 16-20; not fully specified (C-terminus)) [triple agonist of SEQ ID NO: 24], H[Aib]QGTFTSDYSKYLDEKAQKEFVQWLLDTC (bridge 16-20; not fully specified (C-terminus)) [triple agonist of SEQ ID NO: 30] is higher in “in vitro Activity Compared to Native Peptide (%), vs GLP-1” value: 41.2% for the first, 142% for the second.

Going from B1 to Y[Aib]QGTFTSDYSKYLDECRAKEFVQWLLAQKGKKNDWKHNIT (bridge 16-20; not fully specified (C-terminus)) [triple agonist of SEQ ID NO: 23], the “in vitro Activity Compared to Native Peptide (%), vs GLP-1” value falls from 83.1% to 4.01%.

First: H[Aib]QGTFTSDVSSYLLGQAAKQFIAWLVKGGGPSSGAPPPSC-NH2 [triple agonist of SEQ ID NO: 3]
Second: H[Aib]QGTFTSDYSIAMDEIHQKDFVNWLLAQKC (bridge 16-20; not fully specified (C-terminus)) [triple agonist of SEQ ID NO: 33]
The “in vitro Activity Compared to Native Peptide (%), vs GLP-1” value of the first is lower: 1.8% for the first, 24.5% for the second.

Going from B2 to B3, the “in vitro Activity Compared to Native Peptide (%), vs GLP-1” value falls from 82.6% to 64.5%.

What follows are binders tested against human GCG receptor (human, UniProt P47871 26-477) (assay: cell-based or functional assay).
Chain of human GCG receptor (P47871 26-477): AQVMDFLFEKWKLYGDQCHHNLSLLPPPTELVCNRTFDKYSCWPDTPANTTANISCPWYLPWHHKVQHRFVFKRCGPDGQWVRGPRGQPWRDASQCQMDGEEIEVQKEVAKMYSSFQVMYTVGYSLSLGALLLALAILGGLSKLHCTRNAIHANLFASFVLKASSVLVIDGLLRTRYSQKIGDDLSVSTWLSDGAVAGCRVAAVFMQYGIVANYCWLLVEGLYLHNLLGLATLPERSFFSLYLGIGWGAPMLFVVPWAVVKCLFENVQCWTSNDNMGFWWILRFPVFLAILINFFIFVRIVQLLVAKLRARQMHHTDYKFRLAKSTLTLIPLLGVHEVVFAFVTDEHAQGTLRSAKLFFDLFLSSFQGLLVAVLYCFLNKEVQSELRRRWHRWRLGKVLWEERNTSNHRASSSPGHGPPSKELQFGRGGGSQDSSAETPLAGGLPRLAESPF

Going from H[Aib]QGTFTSDYSKYLDEKACKEFVQWLLAQ (bridge 16-20; not fully specified (C-terminus)) [triple agonist of SEQ ID NO: 31] to H[Aib]QGTFTSDYSKYLDEKRAQEFVCWLLAQKGKKNDWKHNIT-NH2 [triple agonist of SEQ ID NO: 28], the “in vitro Activity Compared to Native Peptide (%), vs Glucagon” value falls from 2.2% to 1.6%.

Going from H[Aib]QGTFTSDYSKYLDEKACKDFVQWLLDGGPSSGAPPPS (bridge 16-20; not fully specified (C-terminus)) [triple agonist of SEQ ID NO: 32] to H[Aib]QGTFTSDYSKYLDEKAAKEFVQWLLNTC (bridge 16-20; not fully specified (C-terminus)) [triple agonist of SEQ ID NO: 29], the “in vitro Activity Compared to Native Peptide (%), vs Glucagon” value rises from 1.7% to 6%.

Going from Y[Aib]QGTFTSDYSKYLDECRAKEFVQWLKNGGPSSGAPPPS (bridge 16-20; not fully specified (C-terminus)) [triple agonist of SEQ ID NO: 24] to H[Aib]QGTFTSDYSKYLDEKAQKEFVQWLLDTC (bridge 16-20; not fully specified (C-terminus)) [triple agonist of SEQ ID NO: 30], the “in vitro Activity Compared to Native Peptide (%), vs Glucagon” value falls from 9.3% to 0.7%.

First: B1
Second: Y[Aib]QGTFTSDYSKYLDECRAKEFVQWLLAQKGKKNDWKHNIT (bridge 16-20; not fully specified (C-terminus)) [triple agonist of SEQ ID NO: 23]
The “in vitro Activity Compared to Native Peptide (%), vs Glucagon” value of the first is lower: 0.8% for the first, 9.3% for the second.

H[Aib]QGTFTSDVSSYLLGQAAKQFIAWLVKGGGPSSGAPPPSC-NH2 [triple agonist of SEQ ID NO: 3] and H[Aib]QGTFTSDYSIAMDEIHQKDFVNWLLAQKC (bridge 16-20; not fully specified (C-terminus)) [triple agonist of SEQ ID NO: 33] cannot be ordered by “in vitro Activity Compared to Native Peptide (%), vs Glucagon” value: < 0.1% for the first, < 0.1% for the second.

First: B2
Second: B3
The “in vitro Activity Compared to Native Peptide (%), vs Glucagon” value of the first is lower: 0.1% for the first, 0.2% for the second.
